Tests used:
Settings in all cases: Homo sapiens; 10 uM
[1] = substrate: CNC[C@H](O)c1ccc(O)c(O)c1
Description: (§1) Activity of human recombinant CA7 at 10 uM by stopped-flow technique

[2] = substrate: NCCc1c[nH]cn1
Description: as §1

[3] = substrate: CNC[C@H](O)c1ccc(O)c(O)c1; remark: listed apart in the source
Description: (§2) Activity of human recombinant CA5A at 10 uM by stopped-flow technique

[4] = substrate: NCCc1c[nH]cn1; remark: listed apart in the source
Description: as §2

[5] = substrate: CNC[C@H](O)c1ccc(O)c(O)c1; remark: listed apart in the source
Description: (§3) Activity of human recombinant CA4 at 10 uM by stopped-flow technique

[6] = substrate: NCCc1c[nH]cn1; remark: listed apart in the source
Description: as §3

[7] = substrate: CNC[C@H](O)c1ccc(O)c(O)c1; remark: listed apart in the source
Description: (§4) Activity of human recombinant CA14 at 10 uM by stopped-flow technique

[8] = substrate: NCCc1c[nH]cn1; remark: listed apart in the source
Description: as §4

B1: Carbonic anhydrase 7 (Homo sapiens), P43166 (protein)
chain: MTGHHGWGYGQDDGPSHWHKLYPIAQGDRQSPINIISSQAVYSPSLQPLELSYEACMSLSITNNGHSVQVDFNDSDDRTVVTGGPLEGPYRLKQFHFHWGKKHDVGSEHTVDGKSFPSELHLVHWNAKKYSTFGEAASAPDGLAVVGVFLETGDEHPSMNRLTDALYMVRFKGTKAQFSCFNPKCLLPASRHYWTYPGSLTTPPLSESVTWIVLREPICISERQMGKFRSLLFTSEDDERIHMVNNFRPPQPLKGRVVKASFRA
kcat [1]: 10.4 10^5/s | kcat [2]: 15.2 10^5/s

B2: Carbonic anhydrase 5A, mitochondrial (Homo sapiens), P35218 (protein)
chain: MLGRNTWKTSAFSFLVEQMWAPLWSRSMRPGRWCSQRSCAWQTSNNTLHPLWTVPVSVPGGTRQSPINIQWRDSVYDPQLKPLRVSYEAASCLYIWNTGYLFQVEFDDATEASGISGGPLENHYRLKQFHFHWGAVNEGGSEHTVDGHAYPAELHLVHWNSVKYQNYKEAVVGENGLAVIGVFLKLGAHHQTLQRLVDILPEIKHKDARAAMRPFDPSTLLPTCWDYWTYAGSLTTPPLTESVTWIIQKEPVEVAPSQLSAFRTLLFSALGEEEKMMVNNYRPLQPLMNRKVWASFQATNEGTRS
kcat [3]: 3.9 10^5/s | kcat [4]: 8.6 10^5/s

B3: Carbonic anhydrase 4 (Homo sapiens), P22748 (protein)
chain: MRMLLALLALSAARPSASAESHWCYEVQAESSNYPCLVPVKWGGNCQKDRQSPINIVTTKAKVDKKLGRFFFSGYDKKQTWTVQNNGHSVMMLLENKASISGGGLPAPYQAKQLHLHWSDLPYKGSEHSLDGEHFAMEMHIVHEKEKGTSRNVKEAQDPEDEIAVLAFLVEAGTQVNEGFQPLVEALSNIPKPEMSTTMAESSLLDLLPKEEKLRHYFRYLGSLTTPTCDEKVVWTVFREPIQLHREQILAFSQKLYYDKEQTVSMKDNVRPLQQLGQRTVIKSGAPGRPLPWALPALLGPMLACLLAGFLR
kcat [5]: 2.9 10^6/s | kcat [6]: 3.5 10^6/s

B4: Carbonic anhydrase 14 (Homo sapiens), Q9ULX7 (protein)
chain: MLFSALLLEVIWILAADGGQHWTYEGPHGQDHWPASYPECGNNAQSPIDIQTDSVTFDPDLPALQPHGYDQPGTEPLDLHNNGHTVQLSLPSTLYLGGLPRKYVAAQLHLHWGQKGSPGGSEHQINSEATFAELHIVHYDSDSYDSLSEAAERPQGLAVLGILIEVGETKNIAYEHILSHLHEVRHKDQKTSVPPFNLRELLPKQLGQYFRYNGSLTTPPCYQSVLWTVFYRRSQISMEQLEKLQGTLFSTEEEPSKLLVQNYRALQPLNQRMVFASFIQAGSSYTTGEMLSLGVGILVGCLCLLLAVYFIARKIRKKRLENRKSVVFTSAQATTEA
kcat [7]: 4.5 10^5/s | kcat [8]: 10 10^5/s

Source: ChEMBL document CHEMBL1146311, “Carbonic anhydrase activators: L-Adrenaline plugs the active site entrance of isozyme II, activating better isoforms I, IV, VA, VII, and XIV” (Bioorg Med Chem Lett, 2007)
